Data from patent US20200024322A1 (Eli Lilly, published 2020).
Numbered stars: 1 amine (or outer) side, 2 acyl side, 3 side chain; on linkers, the order of the positions; unused ones are H or OH. Square brackets hold non-standard residues; d marks the D form. Side chains are listed from the residue outwards. Ends that are not written are not given here. * marks the point of attachment. C20 diacid = O=C(O)CCCCCCCCCCCCCCCCCCC(=O)*; γGlu = O=C(O)[C@H](CCC(=O)[*:2])N[*:1]; AEEA = NCCOCCOCC(=O)O; Aib = CC(C)(N)C(=O)O

T1: human GIP receptor (human, UniProt P48546 22-466)
T1 construct: whole, on cells; Used as crude membranes of stably transfected CHO cells; also called hGIPR
T1 sequence (looked up): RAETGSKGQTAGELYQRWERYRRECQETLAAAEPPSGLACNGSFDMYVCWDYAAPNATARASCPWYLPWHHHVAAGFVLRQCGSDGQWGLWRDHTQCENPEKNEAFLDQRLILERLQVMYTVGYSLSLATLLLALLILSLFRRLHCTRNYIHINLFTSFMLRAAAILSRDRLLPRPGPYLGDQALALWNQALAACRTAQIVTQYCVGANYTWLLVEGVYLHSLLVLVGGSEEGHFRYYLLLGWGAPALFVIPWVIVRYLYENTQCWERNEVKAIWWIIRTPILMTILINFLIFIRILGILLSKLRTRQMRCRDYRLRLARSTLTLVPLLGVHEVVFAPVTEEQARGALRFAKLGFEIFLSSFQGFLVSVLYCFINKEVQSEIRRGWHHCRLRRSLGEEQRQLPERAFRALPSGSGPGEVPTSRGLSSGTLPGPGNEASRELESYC

B1: Example 87 (peptide)
peptide: YXEGTFTSDYSILLDKKAQXAFIEYLIEGGPSSGAPPPS
modifications: αMePro2; K17((2-[2-(2-Amino-ethoxy)-ethoxy]-acetyl)2-(γ-Glu)-CO-(CH2)18-CO2H); Aib20; C-terminal NH2
B2: Example 110 (peptide)
peptide: YXEGTFTSDYSILLDKKAQXAFIEYLIEGGPSSGAPPPS
modifications: Aib2; K17((2-[2-(2-Amino-ethoxy)-ethoxy]-acetyl)-(γ-Glu)-(Trx)-CO-(CH2)18-CO2H); Aib20; C-terminal NH2
B3: Example 50 (peptide)
peptide: Y[Aib]EGTFTSDYSILLDKK([AEEA-AEEA-γGlu-C20 diacid])AQ[Aib]AFIEYLIEGGPSSG-NH2
modifications: N-terminus assumed
SMILES: CC[C@H](C)[C@H](NC(=O)[C@H](CC(C)C)NC(=O)[C@H](Cc1ccc(O)cc1)NC(=O)[C@H](CCC(=O)O)NC(=O)[C@@H](NC(=O)[C@H](Cc1ccccc1)NC(=O)[C@H](C)NC(=O)C(C)(C)NC(=O)[C@H](CCC(N)=O)NC(=O)[C@H](C)NC(=O)[C@H](CCCCNC(=O)COCCOCCNC(=O)COCCOCCNC(=O)CC[C@H](NC(=O)CCCCCCCCCCCCCCCCCCC(=O)O)C(=O)O)NC(=O)[C@H](CCCCN)NC(=O)[C@H](CC(=O)O)NC(=O)[C@H](CC(C)C)NC(=O)[C@H](CC(C)C)NC(=O)[C@@H](NC(=O)[C@H](CO)NC(=O)[C@H](Cc1ccc(O)cc1)NC(=O)[C@H](CC(=O)O)NC(=O)[C@H](CO)NC(=O)[C@@H](NC(=O)[C@H](Cc1ccccc1)NC(=O)[C@@H](NC(=O)CNC(=O)[C@H](CCC(=O)O)NC(=O)C(C)(C)NC(=O)[C@@H](N)Cc1ccc(O)cc1)[C@@H](C)O)[C@@H](C)O)[C@@H](C)CC)[C@@H](C)CC)C(=O)N[C@@H](CCC(=O)O)C(=O)NCC(=O)NCC(=O)N1CCC[C@H]1C(=O)N[C@@H](CO)C(=O)N[C@@H](CO)C(=O)NCC(N)=O
B4: Example 1 (peptide)
peptide: YXEGTXTSDYSIXLDEKAQXEFIXYLIEGGPSSGAPPPS
modifications: Aib2; αMeF(2F)6; αMeL13; K17((2-[2-(2-Amino-ethoxy)-ethoxy]-acetyl)2-(γ-Glu)-CO-(CH2)18-CO2H); Aib20; D-Glu24; C-terminal NH2
B5: Example 191 (peptide)
peptide: YXEGTXTSDVSIXLDEKAQXEFIXYLIEGGPSSGAPPPS
modifications: Aib2; αMeF(2F)6; αMeL13; K17((2-[2-(2-Amino-ethoxy)-ethoxy]-acetyl)2-(γ-Glu)-CO-(CH2)18-CO2H); Aib20; D-Glu24; C-terminal NH2
B6: Example 183 (peptide)
peptide: YXEGTXTSDLSIXLDEKAQXEFIXYLIEGGPSSGAPPPS
modifications: not printed (the compound name of this Example is missing from the table of Examples 6-287)
B7: Example 211 (peptide)
peptide: YXEGTXTSDYSIXLDKKAQXEFIXYLIEGGPSSGAPPPS
modifications: Aib2; αMeF(2F)6; αMeL13; K17((2-[2-(2-Amino-ethoxy)-ethoxy]-acetyl)-(γ-Glu)-(2-[2-(2-Amino-ethoxy)-ethoxy]-acetyl)-CO-(CH2)18-CO2H); Aib20; D-Glu24; C-terminal NH2

Tests used:
human GIP receptor = molecular target: T1, human GIP receptor; experiment: SPA, [125I]-GIP displacement, hGIPR membranes
human glucagon receptor = molecular target: T2, human glucagon receptor (human, UniProt P47871 26-477); experiment: SPA, [125I]-Gcg displacement, hGcgR membranes
T2 construct: whole, on cells; Used as crude membranes of stably transfected HEK293 cells; also called hGcgR; hGLcgR
T2 sequence (P47871 26-477): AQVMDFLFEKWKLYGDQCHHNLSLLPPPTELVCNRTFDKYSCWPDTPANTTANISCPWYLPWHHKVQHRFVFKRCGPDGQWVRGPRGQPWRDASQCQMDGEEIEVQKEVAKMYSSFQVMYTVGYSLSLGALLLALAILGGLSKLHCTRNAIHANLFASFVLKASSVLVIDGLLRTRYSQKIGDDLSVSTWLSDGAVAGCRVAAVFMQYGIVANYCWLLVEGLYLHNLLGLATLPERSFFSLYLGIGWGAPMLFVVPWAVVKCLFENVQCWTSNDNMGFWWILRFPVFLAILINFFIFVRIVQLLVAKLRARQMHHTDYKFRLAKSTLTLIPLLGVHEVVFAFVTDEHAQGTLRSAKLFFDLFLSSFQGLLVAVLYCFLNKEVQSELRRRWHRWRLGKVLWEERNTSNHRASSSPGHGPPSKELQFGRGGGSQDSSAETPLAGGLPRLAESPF

human GLP-1 receptor = molecular target: T3, human GLP-1 receptor (human, UniProt P43220 24-463); experiment: SPA, [125I]-GLP-1 displacement, hGLP-1R membranes
T3 construct: whole, on cells; Used as crude membranes of stably transfected HEK293 cells; also called hGLP1R; hGLP-1R

Row | Binder | Ki (human GIP receptor) [nM] | Ki (human glucagon receptor) [nM] | Ki (human GLP-1 receptor) [nM]
1 | B1 | 0.034 | 278 | 1.79
2 | B2 | 0.0395 | 73.9 | 4.38
3 | B3 | 0.0568 | 220 | 4.71
4 | B4 | 0.0546 | 207 | 6.67
5 | B5 | 0.144 | 348 | 4.52
6 | B6 | 0.0869 | 304 | 4.11
7 | B7 | 0.0243 | 131 | 2.64
